# Experimental data from patent US20070003982.
# B1: purified recombinant human caspase-3 (protein)
# chain: SGISLDNSYKMDYPEMGLCIIINNKNFHKSTGMTSRSGTDVDAANLRETFRNLKYEVRNKNDLTREEIVELMRDVSKEDHSKRSSFVCVLLSHGEEGIIFGTNGPVDLKKITNFFRGDRCRSLTGKPKLFIIQACRGTELDCGIETDSGVDDDMACHKIPVEADFLYAYSTAPGYYSWRNSKDGSWFIQSLCAMLKQYADKLEFMHILTRVNRKVATEFESFSFDATFHAKKQIPCIVSMLTKELYFYH
# Experiments:
# [1] = target: full length αII-spectrin, rat (UniProt P16086)
# [2] = target: full length αII-spectrin, rat, P16086
Molecule,αII-spectrin fragmentation patterns (Western blot after in vitro digestion of rat brain cortex lysate) [1],αII-spectrin fragmentation patterns (Western blot after in vitro digestion of rat brain cortex lysate) [2]
purified porcine calpain-2,calpain-produced SBDP150,
B1,,Caspase-3-produced SBP150i
